Results on eleven molecules are retold here after patent publication US6001988, “High affinity nucleic acid ligands to lectins” (NeXstar Pharmaceuticals, Inc.).

Data set [1] deals with T1, wheat germ agglutinin (WGA) (Triticum vulgare, UniProt P10968 P10968:27-197).
T1 sequence: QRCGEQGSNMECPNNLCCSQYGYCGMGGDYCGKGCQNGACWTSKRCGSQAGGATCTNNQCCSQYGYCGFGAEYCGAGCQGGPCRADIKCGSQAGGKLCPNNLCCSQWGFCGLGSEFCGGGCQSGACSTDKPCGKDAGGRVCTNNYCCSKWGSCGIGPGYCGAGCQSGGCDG
Put plainly: filter; HBSS, room temp; 19.2 nM in Table IV. The settings on record: tags: free lectin, E Y Laboratories; label: 32P; hairpin. As to the method:
The specifically eluted fraction was processed for use in the following round. Fractions eluted from immobilized WGA were heated at 90° C. for 5 minutes in 1% SDS, 2% β-mercaptoethanol and extracted with phenol/chloroform. RNA was reverse transcribed into cDNA by AMV reverse transcriptase at 48° C. for 60 min in 50 mM Tris-Cl pH (8.3), 60 mM NaCl, 6 mM Mg(OAc)_2, 10 mM DTT, 100 pmol DNA primer, 0.4 mM each of dNTPs, and 0.4 unit/µl AMV RT. […] C) Nitrocellulose Filter Partitioning As described in SELEX Patent Applications, the nitrocellulose filter partitioning method was used to determine the affinity of RNA ligands for WGA and for other proteins. Filter discs (nitrocellulose/cellulose acetate mixed matrix, 0.45 µm pore size, Millipore; or pure nitrocellulose, 0.45 µm pore size, Bio-Rad) were placed on a vacuum manifold and washed with 4 ml of HBSS buffer under vacuum. Reaction mixtures, containing ^32P labeled RNA pools and unlabeled WGA, were incubated in HBSS for 10 min at room temperature, filtered, and then immediately washed with 4 ml HBSS. The filters were air-dried and counted in a Beckman LS6500 liquid scintillation counter without fluor. WGA is a homodimer, molecular weight 43.2 kD, with 4 GlcNAc binding sites per dimer. For affinity calculations, we assume one RNA ligand binding site per monomer (two per dimer). […]

Data set [2] deals with T2, E-selectin (ES-Rg) (Homo sapiens, UniProt P16581 P16581:22-556).
T2 chain: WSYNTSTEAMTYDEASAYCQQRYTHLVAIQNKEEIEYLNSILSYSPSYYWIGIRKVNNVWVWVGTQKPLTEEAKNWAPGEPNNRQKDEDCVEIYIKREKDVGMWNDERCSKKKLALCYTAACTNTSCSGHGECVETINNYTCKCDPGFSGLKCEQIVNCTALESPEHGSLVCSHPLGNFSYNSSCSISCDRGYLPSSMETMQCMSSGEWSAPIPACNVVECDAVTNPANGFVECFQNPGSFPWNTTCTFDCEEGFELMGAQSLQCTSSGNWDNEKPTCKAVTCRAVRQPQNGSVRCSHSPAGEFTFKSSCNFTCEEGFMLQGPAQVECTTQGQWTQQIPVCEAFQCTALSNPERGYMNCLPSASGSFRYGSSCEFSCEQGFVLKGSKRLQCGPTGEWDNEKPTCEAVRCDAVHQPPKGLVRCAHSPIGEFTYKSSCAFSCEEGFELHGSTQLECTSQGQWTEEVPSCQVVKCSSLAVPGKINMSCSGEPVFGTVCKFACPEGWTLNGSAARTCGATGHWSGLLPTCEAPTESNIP
Put plainly: filter; 4 C, HSMC. The settings on record: tags: human IgG1 Fc fusion (provided by A. Varki), chain copies: 2, label: 32P. As to the method: (§1) As described in SELEX Patent Applications, the nitrocellulose filter partitioning method was used to determine the affinity of RNA ligands for LS-Rg and for other proteins. Filter discs (nitrocellulose/cellulose acetate mixed matrix, 0.45 um pore size, Millipore) were placed on a vacuum manifold and washed with 2 ml of HSMC buffer under vacuum. Reaction mixtures, containing ^32P labeled RNA pools and unlabeled LS-Rg, were incubated in HSMC for 10–20 min at 4° C., room temperature or 37° C., filtered, and then immediately washed with 4 ml HSMC at the same temperature. The filters were air-dried and counted in a Beckman LS6500 liquid scintillation counter without fluor.
(§2) The affinity of L-selectin ligands to ES-Rg, PS-Rg and CD22β-Rg were determined by nitrocellulose partitioning. […] In general, a ligand's affinity for ES-Rg is 10^3-fold lower and that for PS-Rg is about 10^4-fold less than for LS-Rg. […] The specificity of oligonucleotide ligand binding contrasts sharply with the binding of cognate carbohydrates by the selectins and confirms the assertion that SELEX ligands will have greater specificity than carbohydrate ligands.
(§3) *Dissociation constants were determined at 4° C. in HSMC buffer.

For data set [3], the target named is T3, P-selectin (PS-Rg) (Homo sapiens, UniProt P16109 P16109:42-321).
T3 chain: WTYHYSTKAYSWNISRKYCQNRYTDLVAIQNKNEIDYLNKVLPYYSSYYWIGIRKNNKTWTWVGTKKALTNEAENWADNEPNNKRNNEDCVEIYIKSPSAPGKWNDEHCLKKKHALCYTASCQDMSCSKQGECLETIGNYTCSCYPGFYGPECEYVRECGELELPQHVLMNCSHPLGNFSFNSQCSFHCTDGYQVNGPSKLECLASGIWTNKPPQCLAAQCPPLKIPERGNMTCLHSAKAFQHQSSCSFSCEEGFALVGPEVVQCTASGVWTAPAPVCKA
Description: filter; 4 C, HSMC. The settings on record: tags: human IgG1 Fc fusion (provided by A. Varki), chain copies: 2, label: 32P. The procedure: as §1, §2, §3

The target in data set [4] is T4, L-selectin (LS-Rg) (Homo sapiens, UniProt P14151 P14151:39-332).
T4 chain: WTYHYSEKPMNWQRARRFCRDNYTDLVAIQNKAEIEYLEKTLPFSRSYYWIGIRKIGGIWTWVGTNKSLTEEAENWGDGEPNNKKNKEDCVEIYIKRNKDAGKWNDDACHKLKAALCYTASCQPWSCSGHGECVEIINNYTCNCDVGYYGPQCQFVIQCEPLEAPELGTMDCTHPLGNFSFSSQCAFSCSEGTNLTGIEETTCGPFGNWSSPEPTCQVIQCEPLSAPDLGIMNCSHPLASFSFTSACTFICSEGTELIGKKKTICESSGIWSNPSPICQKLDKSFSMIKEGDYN
Description: filter; 4 C, HSMC; biphasic, fraction 0.65, low affinity Kd 14.5 nM; 142 nM at room temp. The settings on record: tags: human IgG2 Fc fusion (provided by A. Varki); label: 32P. As to the method:
as §1
(§4) The dissociation constants for representative ligands from rounds 13 and 14, including all orphans, were determined by nitrocellulose filter binding experiments and are listed in Table IX. These calculations assume two RNA ligand binding sites per chimera. The affinity of random RNA cannot be reliably determined but is estimated to be approximately 10 µM.

Data set [5] addresses T4, L-selectin (LS-Rg). Put plainly: filter; 4 C, HSMC; 9.2 nM at room temp. The settings on record: tags: human IgG2 Fc fusion (provided by A. Varki); label: 32P; hairpin. As to the method: as §1, §4
In data set [6] the target is T4, L-selectin (LS-Rg). Put plainly: filter; 4 C, HSMC; 15.4 nM at room temp. The settings on record: tags: human IgG2 Fc fusion (provided by A. Varki); label: 32P; hairpin. The procedure: as §1, §4
Data set [7] addresses T4, L-selectin (LS-Rg). Description: filter; 4 C, HSMC; 15.9 nM at room temp. The settings on record: tags: human IgG2 Fc fusion (provided by A. Varki); label: 32P; hairpin. As to the method:
as §1, §4

In data set [8] the target is T4, L-selectin (LS-Rg). Put plainly: filter; 4 C, HSMC; 18 nM at room temp. The settings on record: tags: human IgG2 Fc fusion (provided by A. Varki); label: 32P. The procedure:
as §1, §4

Data set [9] deals with T4, L-selectin (LS-Rg). Put plainly: filter; 4 C, HSMC; 1.5 nM at room temp. The settings on record: tags: human IgG2 Fc fusion (provided by A. Varki); label: 32P. The procedure: as §1, §4
For data set [10], the target named is T4, L-selectin (LS-Rg). Description: filter; 4 C, HSMC; 14.9 nM at room temp. The settings on record: tags: human IgG2 Fc fusion (provided by A. Varki); label: 32P; hairpin. The procedure:
as §1, §4

For data set [11], the target named is T4, L-selectin (LS-Rg). Put plainly: filter; 4 C, HSMC. The settings on record: tags: human IgG2 Fc fusion (provided by A. Varki); label: 32P; no stem. The procedure:
as §1, §4

The target in data set [12] is T4, L-selectin (LS-Rg). Put plainly: filter; 4 C, HSMC; 75 nM at room temp. The settings on record: tags: human IgG2 Fc fusion (provided by A. Varki); label: 32P; hairpin. The procedure:
as §1, §4

The target in data set [13] is T4, L-selectin (LS-Rg). Description: filter; 4 C, HSMC; 5.5 nM at room temp. The settings on record: tags: human IgG2 Fc fusion (provided by A. Varki); label: 32P. The procedure: as §1, §4

B1: 11.24 (ssRNA)
RNA: GGGAAAAGCGAAUCAUACACAAGACGGCUGUGUGGUGUUGGAGCGUCAUAGUAGGAGUCGUCACGAACCAAGGCGCUCCGCCAGAGACCAACCGAGAA
modifications: 2'-NH2 all C and U
Turning to B1, the Kd – broadly, a measure of binding affinity in units of concentration – in [1] was determined as 19.4 nM. That is a double-digit nanomolar value.

B2: F14.53 (ssRNA)
RNA: GGGAGGACGAUGCGGUCCCAGAGUCCCGUGAUGCGAAGAAUCCAUUAGUACCAGACAGACGACUCGCCCGA
modifications: 2'-NH2 all C and U
On to B2, for which the Kd turned out to be 355 nM in data set [2], 5200 nM in data set [3] and 0.097 nM in data set [4].

B3: F13.48 (ssRNA)
RNA: GGGAGGACGAUGCGGAAAGUUAUGAGUCCGUAUAUCAAGGUCGACAUGUGUGAAUCAGACGACUCGCCCGA
modifications: 2'-NH2 all C and U
Take B3: the values for the Kd in [3] (hairpin) and in [5] were 720 nM and 15.9 nM, respectively.

B4: F14.9 (ssRNA)
RNA: GGGAGGACGAUGCGGAAACCUUGAUGUGUGAUAGAGCAUCCCCCAGGCGACGUACCAGACGACUCGCCCGA
modifications: 2'-NH2 all C and U
B4 showed a Kd in [6] of 8.2 nM.

B5: F14.21 (ssRNA)
RNA: GGGAGGACGAUGCGGUUGAGAUGUGUGAGUACAAGCUCAAAAUCCCGUUGGAGGCAGACGACUCGCCCGA
modifications: 2'-NH2 all C and U
As to B5, the dissociation constant (Kd) in data set [2] (hairpin) is 2600 nM; in [7] it was 2.3 nM.

B6: F13.51 (ssRNA)
RNA: GGGAGGACGAUGCGGAUGUAAAUCUAGGCAGAAACGUAGGGCAUCCACCGCAACGACAGACGACUCGCCCGA
modifications: 2'-NH2 all C and U
In the case of B6, the Kd in data set [2] came out at 2000 nM; in [8], 8.8 nM.

B7: F13.55 (ssRNA)
RNA: GGGAGGACGAUGCGGUGUCUCUCCUGACUUUUAUUCUUAGUUCGAGCUGUCCUGGCAGACGACUCGCCCGA
modifications: 2'-NH2 all C and U
As to B7, the Kd in data set [2] stood at 49 nM; in data set [3], 5800 nM; in data set [9], 0.062 nM.

B8: F13.32 (ssRNA)
RNA: GGGAGGACGAUGCGGCGCGUAUGUGUGAAAGCGUGUGCACGGAGGCGUCUACAAUCAGACGACUCGCCCGA
modifications: 2'-NH2 all C and U
Take B8: the results for the Kd in [3] (hairpin) and in [10] were 17000 nM and 15.7 nM, respectively.

B9: F14.25 (ssRNA)
RNA: GGGAGGACGAUGCGGUAGAGGUAGUAUGUGUGGGAGAUGAAAAUACUGUGGAAAGCAGACGACUCGCCCGA
modifications: 2'-NH2 all C and U
B9: binding in data set [11] was put at a Kd of 1300 nM.

B10: F13.57 (ssRNA)
RNA: GGGAGGACGAUGCGGUAACAUAAAGUAGCGCGUCUGUGAGAGGAAGUGCCUGGAUCAGACGACUCGCCCGA
modifications: 2'-NH2 all C and U
With B10, the Kd in data set [2] (hairpin) came out at 2700 nM; in [12], 3 nM.

B11: F13.42 (ssRNA)
RNA: GGGAGGACGAUGCGGGAUGUAAAUGACAAAUGAACCUCGAAAGAUUGCACACUCCAGACGACUCGCCCGA
modifications: 2'-NH2 all C and U
Consider B11, for which the Kd in data set [13] turned out to be 2 nM; in data set [2] it was 4400 nM.
